Results: article PMC6530996, “HspB1 phosphorylation regulates its intramolecular dynamics and mechanosensitive molecular chaperone interaction with filamin C” (Science Advances, 2019)
Blank lines part the entries; values can stand above or below the molecule they belong to. Non-standard residues stand in square brackets, D forms with d. No end group written: not given here. pS = N[C@@H](COP(=O)(O)O)C(=O)O

Columns and labels:
HspB1_84–170 = assay: crystal structure of HspB1_84–170 with PPR peptide; format: binding, human; conditions: X-ray, 5 mM peptide, space group P12_11, 2.1 Å
Excerpt: We next carried out crystallographic trials, using a strategy of mixing peptide mimics of the PPR, varying in length and degree of phosphorylation, with a well-ordered ACD construct (HspB1_84–170). […] The monomers within each dimer differ at their N-terminal ends: The β2 strand of one is intramolecularly hydrogen-bonded to its own β3 strand, whereas in the other these residues are extended and stabilized by contacts with a β4-β8 groove of a neighboring dimer (Fig. 3, A and B). This groove also acts as a binding pocket for an intrasubunit interface within the C-terminal region (fig. S4B) ([29]).
Crystals were obtained following initial screens using HspB1_84–170 (18 mg ml^−1) with a fourfold molar excess of one of several peptide mimics of the N-terminal region varying in length and degree of phosphorylation. […]
Diffraction data were integrated using iMosflm and scaled and merged using Aimless in the CCP4 suite with truncation at 2.1 Å. Phases were determined by molecular replacement using Phaser with a previous HspB1 x-ray structure input as a search model (PDB 4MJH, modified by removal of flexible loops, bound C-terminal peptide, and β2 strands). […]

[1] = target: filamin C (FLNC) domains 18-21, 1943-2408 (UniProt Q14315); assay: gas-phase collisional dissociation, tandem native MS; conditions: reference: unphosphorylated HspB1 80-88 peptide; sites S82
[2] = native MS of HspB1_77–171 oligomeric state; format: physicochemical; conditions: 10 μM, 200 mM ammonium acetate pH 6.9, 10-fold molar excess DTT
Excerpt: To test this hypothesis, we recorded mass spectra under conditions preserving noncovalent interactions. […] The combined NMR and mass spectrometry (MS) data are therefore consistent with phosphorylation modulating an order-to-disorder transition by β2 and the PPR that leads to oligomer dissociation via rearrangement of intradimer contacts.
A pET28d(+) vector encoding human HspB1 ACD (residues 84 to 171) was transformed into Escherichia coli BL21(DE3) cells (Agilent) and expressed and purified as described previously ([29]). For crystallography, residue K171 was deleted using a site-directed mutagenesis kit (Agilent) and HspB1_84–170 was expressed and purified as described. […] Concentrations were determined by using a bicinchoninic acid assay (Thermo Pierce).
Because HspB1 can form disulfide-linked dimers, experiments involving the ACD were performed in the presence of 10-fold molar excess DTT. […] Native MS and IM-MS data were recorded on a Synapt G1 mass spectrometer (Waters) modified for the transmission of intact noncovalent protein complexes. HspB1_77–171 variants were analyzed at a concentration of 10 μM in 200 mM ammonium acetate (pH 6.9). […]

[3] = target: T1, HspB1_(84–170), ACD construct for crystallography (human, UniProt P04792 84-170); assay: crystal structure; HspB1_(84–170) 16 mg/ml with 5 mM peptide in PBS pH 7.0; 22% PEG 3350, 0.02 M sodium potassium diphosphate, 0.1 M bis-tris propane pH 7.5; 2.1 Å, space group P12_(1)1; conditions: both partners purified
T1 construct: human HspB1 ACD, residues 84 to 170 (K171 deleted from the 84-171 construct); Dimer in the crystal (four dimers in the asymmetric unit); The residual Gly-Ser overhang that the methods tell of 'both proteins' may also stand on this construct; also called HspB1 ACD

[4] = target: T2, FLNC_(d18–21,ΔI), FLNC domains 18 to 21 lacking the d20 insertion (human, UniProt Q14315 1943-2408, excluding 2163 to 2243); assay: native MS; native IM-MS of mixtures of FLNC_(d18–21) or FLNC_(d18–21,ΔI) with HspB1_(84–171), HspB1 peptides or an excess of control peptides; 200 mM ammonium acetate pH 6.9; conditions: both partners purified
T2 construct: human filamin C, residues 1943 to 2408 of UniProt Q14315 excluding 2163 to 2243; The results speak of 82 insertion residues; 2163 to 2243 are 81; source: E. coli BL21(DE3) pLysS, purified (HisTrap, SEC Superdex 200)
T2 sequence (looked up): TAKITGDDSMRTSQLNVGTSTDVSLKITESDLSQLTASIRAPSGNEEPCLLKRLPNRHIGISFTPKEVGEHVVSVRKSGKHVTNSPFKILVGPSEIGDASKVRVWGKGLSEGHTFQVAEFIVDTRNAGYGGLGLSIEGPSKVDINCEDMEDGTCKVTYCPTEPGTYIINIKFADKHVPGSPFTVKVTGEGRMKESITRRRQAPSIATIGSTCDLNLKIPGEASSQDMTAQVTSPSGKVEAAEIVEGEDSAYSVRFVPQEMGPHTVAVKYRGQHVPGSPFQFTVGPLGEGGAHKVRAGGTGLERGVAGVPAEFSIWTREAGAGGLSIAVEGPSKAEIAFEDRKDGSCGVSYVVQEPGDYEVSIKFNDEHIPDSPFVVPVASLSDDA

[5] = target: T3, human FLNC domains 18 to 21 (FLNC_(d18–21)), EEF-tagged (human, UniProt Q14315 1943-2408); assay: as above; conditions: both partners purified
T3 construct: human filamin C, domains 18 to 21, residues 1943 to 2408 of UniProt Q14315; Modified pET23a/EEF vector; No cleavage of the tags is described; also called FLNC fragment; source: E. coli BL21(DE3) pLysS, purified (HisTrap, SEC Superdex 200); not shown: EEF, C-terminal, kept
T3 sequence (looked up): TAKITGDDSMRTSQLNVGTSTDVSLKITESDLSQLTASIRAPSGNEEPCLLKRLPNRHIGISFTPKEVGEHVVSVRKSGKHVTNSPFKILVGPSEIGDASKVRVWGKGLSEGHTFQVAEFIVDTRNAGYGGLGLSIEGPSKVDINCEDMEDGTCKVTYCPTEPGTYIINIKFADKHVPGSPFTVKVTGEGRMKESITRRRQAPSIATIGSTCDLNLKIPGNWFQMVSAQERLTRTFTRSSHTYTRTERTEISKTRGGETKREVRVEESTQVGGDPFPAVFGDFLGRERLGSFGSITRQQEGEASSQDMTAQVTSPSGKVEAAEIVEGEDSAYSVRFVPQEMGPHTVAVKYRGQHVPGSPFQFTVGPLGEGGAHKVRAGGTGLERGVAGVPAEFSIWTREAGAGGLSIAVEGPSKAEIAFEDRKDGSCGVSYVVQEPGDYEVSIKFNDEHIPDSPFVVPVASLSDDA

[6] = target: T3, human FLNC domains 18 to 21 …; assay: native MS; titration: FLNC_(d18–21) constant at 5 μM, peptide 5 to 160 μM, 200 mM ammonium acetate pH 6.9, acetonitrile vapor; fit with three equivalent binding sites (UniDec); conditions: both partners purified
[7] = target: T3, human FLNC domains 18 to 21 …; assay: cell-based or functional assay

Chain of filamin C (FLNC) domains 18-21, 1943-2408 (Q14315 whole entry, looked up, tested part not stated): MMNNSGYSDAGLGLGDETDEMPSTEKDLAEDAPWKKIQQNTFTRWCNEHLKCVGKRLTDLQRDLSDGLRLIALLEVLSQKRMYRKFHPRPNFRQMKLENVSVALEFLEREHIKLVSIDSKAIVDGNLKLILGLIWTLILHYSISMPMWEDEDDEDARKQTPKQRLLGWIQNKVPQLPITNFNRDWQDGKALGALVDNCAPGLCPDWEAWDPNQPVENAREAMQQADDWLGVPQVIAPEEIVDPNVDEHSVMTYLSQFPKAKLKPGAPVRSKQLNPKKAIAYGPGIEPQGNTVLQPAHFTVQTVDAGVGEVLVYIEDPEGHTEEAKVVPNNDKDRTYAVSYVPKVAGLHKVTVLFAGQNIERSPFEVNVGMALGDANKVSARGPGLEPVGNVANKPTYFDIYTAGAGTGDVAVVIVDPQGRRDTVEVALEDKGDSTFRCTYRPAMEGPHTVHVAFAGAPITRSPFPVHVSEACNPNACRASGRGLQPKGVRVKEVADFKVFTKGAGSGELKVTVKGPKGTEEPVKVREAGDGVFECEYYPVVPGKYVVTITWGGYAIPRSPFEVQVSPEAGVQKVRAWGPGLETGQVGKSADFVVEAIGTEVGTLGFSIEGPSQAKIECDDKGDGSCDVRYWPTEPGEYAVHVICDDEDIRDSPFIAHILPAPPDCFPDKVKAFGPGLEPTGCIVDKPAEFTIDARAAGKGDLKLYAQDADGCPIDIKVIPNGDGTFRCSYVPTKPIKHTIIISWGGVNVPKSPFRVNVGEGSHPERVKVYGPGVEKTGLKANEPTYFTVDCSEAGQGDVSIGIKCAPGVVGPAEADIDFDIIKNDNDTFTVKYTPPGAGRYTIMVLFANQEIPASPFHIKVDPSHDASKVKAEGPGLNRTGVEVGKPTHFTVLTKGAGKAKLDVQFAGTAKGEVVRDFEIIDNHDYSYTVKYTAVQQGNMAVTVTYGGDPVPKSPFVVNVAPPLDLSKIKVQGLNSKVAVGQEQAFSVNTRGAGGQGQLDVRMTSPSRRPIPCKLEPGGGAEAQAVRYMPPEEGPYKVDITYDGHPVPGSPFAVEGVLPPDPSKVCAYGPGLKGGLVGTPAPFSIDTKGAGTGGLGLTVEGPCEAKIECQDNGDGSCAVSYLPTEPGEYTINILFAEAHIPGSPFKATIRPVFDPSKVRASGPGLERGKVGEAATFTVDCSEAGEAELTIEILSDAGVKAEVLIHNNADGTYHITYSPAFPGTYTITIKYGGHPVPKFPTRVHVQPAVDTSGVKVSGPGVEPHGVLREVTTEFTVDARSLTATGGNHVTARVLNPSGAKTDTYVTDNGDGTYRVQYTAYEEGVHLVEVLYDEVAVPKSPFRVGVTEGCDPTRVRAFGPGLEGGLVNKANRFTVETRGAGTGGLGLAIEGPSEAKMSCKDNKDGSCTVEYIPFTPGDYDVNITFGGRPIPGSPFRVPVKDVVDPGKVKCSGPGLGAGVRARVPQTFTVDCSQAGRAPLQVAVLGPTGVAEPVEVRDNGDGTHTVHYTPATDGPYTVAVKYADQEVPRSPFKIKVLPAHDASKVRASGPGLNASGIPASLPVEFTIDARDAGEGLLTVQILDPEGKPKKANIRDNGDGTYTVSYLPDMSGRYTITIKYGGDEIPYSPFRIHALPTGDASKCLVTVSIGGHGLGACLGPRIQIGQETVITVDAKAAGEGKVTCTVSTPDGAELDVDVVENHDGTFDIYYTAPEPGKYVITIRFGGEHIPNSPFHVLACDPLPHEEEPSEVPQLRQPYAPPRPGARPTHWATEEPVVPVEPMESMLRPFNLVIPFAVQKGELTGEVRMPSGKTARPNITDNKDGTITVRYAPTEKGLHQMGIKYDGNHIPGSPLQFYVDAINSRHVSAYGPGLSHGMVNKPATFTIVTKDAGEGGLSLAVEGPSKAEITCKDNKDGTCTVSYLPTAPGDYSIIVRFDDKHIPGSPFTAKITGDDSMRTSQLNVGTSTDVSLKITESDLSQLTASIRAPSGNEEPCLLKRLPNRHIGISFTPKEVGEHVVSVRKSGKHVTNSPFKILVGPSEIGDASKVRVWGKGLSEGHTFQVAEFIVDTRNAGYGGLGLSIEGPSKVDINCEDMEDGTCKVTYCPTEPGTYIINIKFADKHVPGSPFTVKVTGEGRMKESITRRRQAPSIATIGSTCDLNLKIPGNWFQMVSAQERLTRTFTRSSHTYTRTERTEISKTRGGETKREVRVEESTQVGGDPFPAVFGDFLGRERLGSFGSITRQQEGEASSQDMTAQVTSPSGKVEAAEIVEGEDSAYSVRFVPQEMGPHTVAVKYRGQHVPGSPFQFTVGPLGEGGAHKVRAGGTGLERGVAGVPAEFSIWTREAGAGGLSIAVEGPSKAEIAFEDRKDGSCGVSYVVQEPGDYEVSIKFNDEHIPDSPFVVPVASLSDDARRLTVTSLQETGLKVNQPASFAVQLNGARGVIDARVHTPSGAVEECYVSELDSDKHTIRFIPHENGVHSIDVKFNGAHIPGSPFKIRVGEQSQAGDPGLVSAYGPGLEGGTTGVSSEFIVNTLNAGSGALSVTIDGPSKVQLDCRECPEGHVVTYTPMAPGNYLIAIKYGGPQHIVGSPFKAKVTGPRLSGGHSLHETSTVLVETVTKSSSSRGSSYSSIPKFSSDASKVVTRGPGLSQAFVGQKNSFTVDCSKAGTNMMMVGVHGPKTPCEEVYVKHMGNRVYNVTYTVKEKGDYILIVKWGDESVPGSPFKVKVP
T1 sequence (P04792 84-170): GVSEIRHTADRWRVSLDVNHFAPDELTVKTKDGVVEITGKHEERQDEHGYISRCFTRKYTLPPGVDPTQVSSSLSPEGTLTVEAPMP

Molecule: ALSRQL^PSSGVSEI [^P82HspB1_76–88, Peptide from human HspB1 phosphorylated at S82, captured in part in crystal structure]
- binding to HspB1_84–170 in crystal (HspB1_84–170): structure of HspB1_84–170 bound to ALSRQL^PSSGVSEI

Molecule: HspB1 (Hsp27) 80-88 (from UniProt P04792) pS82 HspB1 80-88 peptide
- other: inflection point(s) of breakdown curve [1]: stronger; reference ≈55 and ≈110

Molecule: HspB1_77–171: Human HspB1 ACD extended at the N-terminus to encompass the principle phosphorylation region (PPR)
- oligomeric state [2]: populates a monomer-dimer equilibrium

Molecule: ^2PHspB1_77–171: Human HspB1 ACD and PPR with phosphomimic substitutions S78E and S82D
- oligomeric state [2]: phosphomimicry shifts the oligomeric state toward the monomer

Further lines, results first:

- binding result [3]: binds
B1: ^P82HspB1_(76–88), peptide mimic of the PPR phosphorylated at Ser82 (peptide)
peptide: ALSRQL[pS]SGVSEI
notes: human HspB1 residues 76 to 88; Only 3 to 6 residues of the peptide could be built in the density; also called PPR peptide; source: synthetic peptide, bought: Biomatik

- binding result [4]: binds
- stoichiometry N [5]: ≤ 2
- Kd [6]: 130 ± 17 µM
- stoichiometry N [6]: ≤ 3
- activation required for the transition of unfolding intermediate B to final state C of FLNC_(d18–21) with one peptide bound (coulombically steered unfolding, IM-MS) [7]: ~60 V
B2: HspB1_(80–88) peptide (peptide, UniProt P04792 80-88, looked up)
peptide: QLSSGVSEI
notes: The methods say that N termini were acetylated 'when the N-terminal residue was Glu'; this peptide begins with Gln, so whether it was acetylated is open; also called unphosphorylated peptide; source: synthetic peptide, bought: Biomatik
